Target: Angiotensin-II (Rattus norvegicus)
Assay: radioligand

B1: Angiotensin II type-1 receptor (AT1R), P25095 (protein)
chain: MALNSSAEDGIKRIQDDCPKAGRHSYIFVMIPTLYSIIFVVGIFGNSLVVIVIYFYMKLKTVASVFLLNLALADLCFLLTLPLWAVYTAMEYRWPFGNHLCKIASASVSFNLYASVFLLTCLSIDRYLAIVHPMKSRLRRTMLVAKVTCIIIWLMAGLASLPAVIHRNVYFIENTNITVCAFHYESRNSTLPIGLGLTKNILGFLFPFLIILTSYTLIWKALKKAYEIQKNKPRNDDIFRIIMAIVLFFFFSWVPHQIFTFLDVLIQLGVIHDCKISDIVDTAMPITICIAYFNNCLNPLFYGFLGKKFKKYFLQLLKYIPPKAKSHSSLSTKMSTLSYRPSDNMSSSAKKPASCFEVE
- Kd: 2.8 nM

Reference: PMC4482198
